Among the data in patent publication US12091399B2, “Phenyltetrazole derivatives as plasma kallikrein inhibitors” (Boehringer Ingelheim International GmbH, priority 2018, dated 2024) are Km values, retold here.

In data set [1] the test system is Cc1cc(=O)oc2cc(NC(=O)[C@H](CCCNC(=N)N)NC(=O)[C@H](C)NC(=O)[C@H](CCC(=O)OCc3ccccc3)NC(=O)OC(C)(C)C)ccc12. The data set can be described thus: Inhibition of FXIa (Ki). It is filed as biochemical, human. Conditions: other: substrate KM, enzyme FXIa; pH 7.8; 24.0 °C. Here is the method:
(§1) The ability of compounds of formula (I) to inhibit plasma kallikrein (PKK), Factor XIIa (FXIIa), Factor XIa (FXIa), Factor Xa (FXa), Factor IIa (alpha-thrombin; FIIa), plasmin, trypsin, tissue kallikrein 1 (TK1), Factor Vila (FVIIa), or FVIIa complexed with Tissue Factor, phospholipids and CaCl2) (FVIIa/TF/PL/CaCl2) was determined using the following biochemical assays in assay buffer (100 mM Tris, 150 mM NaCL, adjusted to a pH of 7.8 with HCl, and containing 0.1% (w/v) BSA and 0.05% (v/v) Tween20) in the presence of 1% (v/v) DMSO:
Human FXIa (0.5 nM or 0.016 U/mL; Enzyme Research Laboratories) was incubated at 24° C. with 0.25 mM fluorogenic substrate Boc-Glu(OBzl)-Ala-Arg-AMC.HCl (11575 from Bachem) and various concentrations of the test compound in assay buffer. Measurements were performed in a kinetic interval every 2nd minute for 16 min using a Spectramax M5 (Molecular Devices) with the following settings of the wavelength excitation of 350 nm and wavelength emission of 450 nm.
The pIC50 values were then fitted using a four-parametric fitting procedure using GraphPad Prism (version 6; GraphPad Software, Inc.). Respective Ki values were obtained by correction of the IC50 values for the respective KM value of the used substrate (see Table A for the obtained KM values of the used substrates) using the following formula: […]

The test system of data set [2] is Cc1cc(=O)oc2cc(NC(=O)[C@H](CCCNC(=N)N)NC(=O)[C@H](Cc3ccccc3)NC(=O)[C@@H]3CCCN3)ccc12. The data set can be described thus: Inhibition of PKK (Ki), kinetic assay. In kind it is biochemical, human. To be noted: other: substrate KM, enzyme PKK; pH 7.8; 24.0 °C. On the procedure:
as §1
Human PKK (1.78 nM or 0.025 U/mL; Enzyme Research Laboratories) was incubated at 24° C. with 0.25 mM fluorogenic substrate H-Pro-Phe-Arg-AMC (11295 from Bachem) and various concentrations of the test compound in assay buffer. Measurements were performed in a kinetic interval every 2nd minute for 16 min using a Spectramax M5 (Molecular Devices) with the following settings of the wavelength excitation of 350 nm and wavelength emission of 450 nm. The number of the compound corresponds to the number of the Example in the experimental section.
The pIC50 values were then fitted using a four-parametric fitting procedure using GraphPad Prism (version 6; GraphPad Software, Inc.). […]

What is called Km is the substrate concentration at which the rate is half of its maximum.

Chain of Human PKK (Homo sapiens) (chain, as listed by the source): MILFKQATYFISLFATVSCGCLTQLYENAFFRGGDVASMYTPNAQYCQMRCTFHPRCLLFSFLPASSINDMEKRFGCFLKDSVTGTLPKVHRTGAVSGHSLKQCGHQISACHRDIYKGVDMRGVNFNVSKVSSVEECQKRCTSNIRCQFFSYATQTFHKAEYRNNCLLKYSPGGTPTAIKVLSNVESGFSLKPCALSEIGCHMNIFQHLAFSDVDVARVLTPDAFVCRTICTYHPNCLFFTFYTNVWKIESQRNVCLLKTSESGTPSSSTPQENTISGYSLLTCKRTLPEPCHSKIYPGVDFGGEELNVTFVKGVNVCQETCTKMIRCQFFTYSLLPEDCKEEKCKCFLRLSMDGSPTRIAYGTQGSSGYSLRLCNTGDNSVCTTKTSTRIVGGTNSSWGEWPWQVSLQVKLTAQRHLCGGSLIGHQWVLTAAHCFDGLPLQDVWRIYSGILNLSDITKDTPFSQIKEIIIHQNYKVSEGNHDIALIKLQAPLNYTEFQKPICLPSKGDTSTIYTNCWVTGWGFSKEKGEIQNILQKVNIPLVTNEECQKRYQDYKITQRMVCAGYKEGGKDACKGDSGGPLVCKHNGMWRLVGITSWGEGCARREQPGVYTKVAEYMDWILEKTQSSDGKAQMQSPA

Consider Human FXIa (Homo sapiens), for which the Km in data set [1] worked out at 290 µM.
In the case of Human PKK (Homo sapiens), in data set [2], the Km worked out at 160 µM.
